Test results reported in the DeepSol protein solubility set.

Test: soluble on expression in E. coli; label from the status in PepcDB or PDB records

Sequence	soluble on expression in E. coli
MKIVIAPDSFKESLSAEKCCQAIKAGFSTLFPDANYICLPIADGGEGTVDAMVAATGGNIVTLEVCGPMGEKVNAFYGLTGDGKTAVIEMAAASGLMLVAPEKRNPLLASSFGTGELIRHALDNDIRHIILGIGGSATVDGGMGMAQALGVRFLDADGQALAANGGNLARVASIEMDECDPRLANCHIEVACDVDNPLVGARGAAAVFGPQKGATPEMVEELEQGLQNYARVLQQQTEINVCQMAGGGAAGGMGIAAAVFLNADIKPGIEIVLNAVNLAQAVQGAALVITGEGRIDSQTAGGKAPLGVASVAKQFNVPVIGIAGVLGDGVEVVHQYGIDAVFSILPRLAPLAEVLASGETNLFNSARNIACAIKIGQGIKN	soluble
SAIITTTTVRFTDGTSPTFFSSASTKAYNLHFLYSNSTQRLTNPKFGIGGKLKVTVNPYSYTEEVRPEERKSLTDFLTEAGDFVNSDGGDGGPPRWFSPLECGARAPESPLLLYLPGIDGTGLGLIRQHKRLGEIFDIWCLHFPVKDRTPARDIGKLIEKTVRSEHYRFPNRPIYIVGESIGASLALDVAASNPDIDLVLILANPVTRFTNLMLQPVLALLEILPDGVPGLITENFGFYQEMFETMLNENDAAQMGRGLLGDFFATSSNLPTLIRIFPKDTLLWKLQLLKSASASANSQMDTVNAQTLILLSGRDQWLMNKEDIERLRGALPRCEVRELENNGQFLFLEDGVDLVSIIKRAYYYRRGKSLDYISDYILPTPFEFKEYEESQRLLTAVTSPVFLSTLKNGAVVRSLAGIPSEGPVLYVGNHMLLGMELHAIALHFLKERNILLRGLAHPLMFTKKTGSKLPDMQLYDLFRIIGAVPVSGMNFYKLLRSKAHVALYPGGVREALHRKGEEYKLFWPEHSEFVRIASKFGAKIIPFGVVGEDDLCEMVLDYDDQMKIPFLKNLIEEITQDSVNLRNDEEGELGKQDLHLPGIVPKIPGRFYAYFGKPIDTEGREKELNNKEKAHEVYLQVKSEVERCMNYLKIKRETDPYRNILPRSLYYLTHGFSSQIPTFDLRNH	not soluble
MECFRSRIITIYLKRLKYSPLLWRNAKRGTRSSYMWLYVSICCGDFQFWKLSGTPSSPTCKTHSCGFIFWTNTHLLGDQLRYTIMDTIGMYLIIKQRLRNIHKNDPRLFQYVFENGHPLPYNR	not soluble
MRDLKGIFSALLVSFNEDGTINEKGLRQIIRHNIDKMKVDGLYVGGSTGENFMLSTEEKKEIFRIAKDEAKDQIALIAQVGSVNLKEAVELGKYATELGYDCLSAVTPFYYKFSFPEIKHYYDTIIAETGSNMIVYSIPFLTGVNMGIEQFGELYKNPKVLGVKFTAGDFYLLERLKKAYPNHLIWAGFDEMMLPAASLGVDGAIGSTFNVNGVRARQIFELTKAGKLKEALEIQHVTNDLIEGILANGLYLTIKELLKLEGVDAGYCREPMTSKATAEQVAKAKDLKAKFLS	soluble
SNAMSDTLYIKMDQAVEITKKQVTVGDVAKLQCKNKNITNRLKSMKLLEDTTKGKKRYIVSIMKIIEMADQTFQNVDIQNIGETECVVEFKTPKKDDGPM	soluble
MGSDKIHHHHHHMEFTKKSKLKNMYVNMNVARMLSKINEYKGRQLLYKKQPKEILENLEKKSLVDCSESTYIGNQRDSSNFNLEKLISNEVTPRSREELSIVEYRDVVKTINSAYESIPISSQTILELHGYLYKFSSTRGGSYKSDNDFIEHNLKPSEFISTDSSVNKVEKAVEEICEAYNTLIEEDEIDILILISAFVLDFILIHPFKEGNIKMARVLILLLLNKNGYEVGRYISLGKIFDDSSYEYYSNLNYLKASIGSEKADMNAWIEYFLETILTAYEKLDDSLNISDKKRQTKTSRIEKIINSTLGYFTKEDIRDLCPDIPEPTINRVFNNLRKQDKIEVVARGRSAKWKKKY	not soluble
MSKKKQDVSIVRSSAAEYLTFIAAMGDQSQSVEMRYEDENIWLTQKMMASLYDVTVPAINQHLKRIFDDGELLPEAVLKDYLITAADGKQYRTKHYNLQAIISVGFKINNVRAVQFRKWAGQIVKDYTIQGWTMDVERLKKGHLFTDEYFDRQLEYIREIRLSERKFYQKVTDLYATAFDYDKDALTTREFFALVQNKLHWAVHRHTAAELIVSRADAGRTNMGLTHWAAAPQGKIIKSDVSIAKNYLNVQEMEYLERIVSIYLDFAELQAMRKIPMSMQDWARRLDGFLEFNGNEILMGPGKVSQEQAKLHAESEFEQYRIVQDRLFQSDFDRLLLQLESKNKEEGQ	not soluble
MREQISVLTQNLSQTIVGKDEAIRLVLVALLSGGHALLEDVPGVGKTLLAKSLARSINGKFQRVQCTPDLLPTDITGTNIWNPSSREFEFLPGPAFANILLADEINRATPRTQAALLEVMEEKQVTVDGETRLVPHPFFVIATQNPIEYQGTFPLPEAQLDRFALSLSLGYPSEAEELKMLQRQQNPEAIAVGDLESCISLEEVEALQKAVRQVKLTEDLQQYLLRLVRASRTDEDVTLGVSPRGTTALQRATQAFAFLEERDYAIDDDVKFVAPHVLAHRLIPASGKDPKAILQRLLDSVPILEHHHHHH	not soluble
MGINVQFRPMTIHDIDEVVQVERASFTSPWSRESFYNELMYNRYAKYIVMVYNGRIIGYGGMWLVIDEAHVTNVAVLPQFRGQKLGEALMRRLMDMARQHGAATMTLEVRVSNHVAQSLYRKLGFRNGGIRKRYYPDNFEDALVMWVKLR	not soluble
MGSDKIHHHHHHMIKILLLIDYSSEFDRKLLRGLVQYSKENGPWLFYRLPSYYSGMYGEKGILKWAKEWKADAIIGQWNNDTVNLLKELNIPIVLQNYHHRSTTYSNLTGDYKGTGRMAAQFFAKRMFHNFAYFGINGVVWSDERCEGFRQEVKRIGGNFYCFESDKHEDEIRIEVSQWLQELPKPIALFCCDDSHALFISETCKISNIHIPEEISLLGVDNDDLICNISDPPISSIELEVERGGYSIGRLIHQQIKKEHEGTFNIVINPIRIELRQSTEKHNIKDPYILEVVKYIESHYNSDLTIESLLAQIPLSRRNFEVKFKNAMHTSIYQYILNCRVNHLADLLLTTDRSLADIATEAGFKDYNNISRIFKKFKGCSPLEYREKKITNR	not soluble
SASRGYLHHLLTAEGAWEEFVSKAKLPRDRAVALHKALRDLTALLAIAERGRSRKGWKGKEKFVKAFPCLKADLEEHISQLYALADHAEELHRGCTVSNMVADSFSVASDILNLFGLFLAPESAEGSLVLSAAGLGLGVAATVTNVATSIMKETSRVLDGVEAGHHGSTAMDILEEAGTSVARIASEIPQATRDITRDLEALEQHMNALSLVRANPRLEEDARALINAGSIPAQRAKQVRASLKGTPLAMSKEDRIRSATTTGVTLLRDVGSLVNESKQLYEGSASESAAALRKLAQELEEKLGELMKFYETI	not soluble
SAEKQAGLVGEPDPEGSSPGTSESWNYDSNCVFCRVAAGQEPKTELFHCENEDLVCFKDIKPAALYHYLVVPKKHIGSCKDLNKDHIEMVESMVAAGKTMLERNNFTDFTDVRMGFHVPPFCSISHLHLHVIAPVKEFGFLSKLVYRQDSYWFVTVDYLLEKLRK	soluble
MGHHHHHHSHMCSSGGPVDRAPDSSKDGKNHHKTMGHYNHNDSLRKTQINSLKNSVACPGAQKAITSSEAVDRFMPRTTQLQERKRRREDDRKLGTFLQTNPTGNEIMIGPLLPDISKVDMHDDSLNTTANLIRHKLKEVISSVPKPPEDKPEDVHTSRPLKQRRRI	soluble
MWRCIVVISSDRRPEMPFKPLVTAGIESLLNTFLYRSPALKTARSRLLGKVLRVEVKGFSTSLILVFSERQVDVLGEWAGDADCTVIAYASVLPKLRDRQQLAALIRSGELEVQGDIQVVQNFVALADLAEFDPAELLAPYTGDIAAEGISKALRGGAKFLHHGIKRQQCYVAEAITEEWRMAPGPLEVAWFAEETAAVERAVDALTKRLEKLEAK	not soluble
MAHHHHHHMLSSAAPKRYKFDQRGNLTEVNFLACKSVVPPRTYVHSKNSLTCSTSVIPELHQTAHHCKGRSGANGTSGTNGKSGSTSKMAMSQENIFEAEAISTNAYAHGGGPSSLHSMNMVHSVSSVGSGGNDPSQYVPNQCGNMNMMGTGLSGHEMNNNAPLLFVDGAPYCADDAGQGIDPGVVAVSNALFAYNSAFQSIPIKTSPNVFRRRTKGEGNSEWCNAFVTRVDPCECGDPDEQFKPYEVTKYYDDGQVKTVFNFDQDSAPQEQLM	soluble
TTHKFEHPLNEKTRIYLRVESLLRQAHLASGFADNHQYQLFFRALFDMVEIFEQIQLKSELAKDLEKQRLSYRHWLNVEGVDQEALNSLLNEIDVVHSQLMGAERFGQALKEDRFLSSIRQRFNLPGGSCCFDLPALHYWLHLPIERKKHDANQWQKSLKPLSDALTLWLKLARETGHFKAQIARAGFFQSDADEANILRLHIPMKYGVYPMISGHKNRFAIKFMAFENGQACSQDVEFELAVC	soluble
GSSAKRKQEEKHLKMLRDMTGLPHNRKCFDCDQRGPTYVNMTVGSFVCTSCSGSLRGLNPPHRVKSISMTTFTQQEIEFLQKHGNEVCKQIWLGLFDDRSSAIPDFRDPQKVKEFLQEKYEKKRWYVPPEQAKVVASVHA	soluble
MFQRLFGRERHANRAITDALYAQIVAAARQTVFYSHWNVPDTPLGRFEMLSLHMFLFQHRLRGEGGVAQEIAQVLIDEFFLDVDHSLRELGIGDVGVPKRMKKLAKMFYGRTAAYDDALDRNDRDGLTAALARNVRPDAGTWPEAPQLADYVADACRQLAAQPSQSIVSGTAVFPLAKGGALEHHHHHH	not soluble
MLLMKTASKTNNSVRRNMNTHSAISELIAPWLELTDPKLAALVITHLELDSRLIKSGDTFVAIQGHAVDGRQFIDKAIAQGANLVLAEADAQHLNGWVEYRAGVPVIYLAELGQHLSELAGRLYGGHHNQLIGVTGTNGKTTITQLIAQWLELLGHKAAVMGTTGNGFLNALEPAANTTGNALQIQATLRDLAERGAQYTALETSSHGLVQGRVKKLHFVAGVFSNLSRDHLDYHGTMEAYAAAKFSLFSEHACQNAIINVDDAVGAQWVKQLPQAIGVSLVTKPNTAQAIWAREVAYAESGITLNFESSWGEGELHAPLIGEFNACNLLLALATLLSLGFEKSALLATAPKLRPVLGRMELFQREQKAKMVVDYAHTPDALEKALRALRVHCAGQLWAIVGCGGDRDRGKRPMMAAIAEQFADRVILTDDNPRSESPQAIVADMVAGLTYPERAHIEHHRFQAASYALQHAGAQDIILLAGKGHEDYQVLANETIHYSDRETAQQLLELQP	not soluble
MGSDKIHHHHHHMIIKTSFLIVIHAQYAKKVVGKKISIYFTIHSGIKIFVKMKTCARISCFLILAVCSFFDAAAQGNFLLWEITGNGLADTSYLFGTIHIRDKRVFNLGDSTYYAITHTKALYGELNLQDKSEMKQHAPELLMPSGTSLQAMLSAQDYKLVKKYCKKHIGVYALLINKIKPIYISAVVSEDLLKKEEKKPLDLYLQDYAARQGNEIGGIETFQEQLSVIDLLPLQEQADMLVEQIKNIDQEKILMEQMLQFYLNESLDSLEILVQEDTLSQEFNEAILDARNKVMLTRMETQMNREPTFFAVGAAHLAGEKGLVILLRKAGYTVRPVKRK	not soluble
MHHHHHHAIGYVWNTLYGWVDTGTGSLAAANLTARMQPISHHLAHPDTKRRFHELVCASGQIEHLTPIAAVAATDADILRAHSAAHLENMKRVSNLPTGGDTGDGITMMGNGGLEIARLSAGGAVELTRRVATGELSAGYALVNPPGHHAPHNAAMGFCIFNNTSVAAGYARAVLGMERVAILDWDVHHGNGTQDIWWNDPSVLTISLHQHLCFPPDSGYSTERGAGNGHGYNINVPLPPGSGNAAYLHAMDQVVLPALRAYRPQLIIVGSGFDASMLDPLARMMVTADGFRQMARRTIDCAADICDGRIVFVQEGGYSPHYLPFCGLAVIEELTGVRSLPDPYHEFLAGMGGNTLLDAERAAIEEIVPLLADIR	soluble
